Blank lines part the entries; values can stand above or below the substance they belong to.
Tests used:
[1] = molecular target: integrin α6β1 on human cells (1064SK fibroblasts, endothelial cells) (human) (UniProt P23229); assay: cell-based or functional assay
[2] = molecular target: integrin β1 subunit (β1 integrins) on 1064SK fibroblasts (human) (UniProt P05556); assay: cell-based or functional assay
[3] = molecular target: αvβ3 integrin on human cells (HUVE cells, fibroblasts, platelets) (human) (UniProt P06756); assay: cell-based or functional assay
[4] = molecular target: integrin αv subunit (αv integrins αvβ1, αvβ3, αvβ5) on 1064SK fibroblasts (human) (UniProt P06756); assay: cell-based or functional assay
[5] = molecular target: integrin α4 subunit on 1064SK fibroblasts (human) (UniProt P13612); assay: cell-based or functional assay
[6] = molecular target: integrin α5β1 (fibronectin receptor) on 1064SK fibroblasts (human) (UniProt P08648); assay: cell-based or functional assay
[7] = molecular target: integrin α2 subunit on 1064SK fibroblasts (human) (UniProt P17301); assay: cell-based or functional assay
[8] = molecular target: integrin α1 subunit on 1064SK fibroblasts (human) (UniProt P56199); assay: cell-based or functional assay
[9] = molecular target: integrin α3 subunit on 1064SK fibroblasts (human) (UniProt P26006); assay: cell-based or functional assay
Fisp12/mCTGF (mouse) = Fisp12/mCTGF (mouse) (UniProt P29268); assay: solid-phase binding isotherm: varied RGD-affinity purified αIIbβ3 on immobilized Fisp12/mCTGF, detected with 125I-mAb15; saturable
Fisp12/mCTGF (mouse), sequence (P29268 26-348 E161K limits assumed, form in doubt): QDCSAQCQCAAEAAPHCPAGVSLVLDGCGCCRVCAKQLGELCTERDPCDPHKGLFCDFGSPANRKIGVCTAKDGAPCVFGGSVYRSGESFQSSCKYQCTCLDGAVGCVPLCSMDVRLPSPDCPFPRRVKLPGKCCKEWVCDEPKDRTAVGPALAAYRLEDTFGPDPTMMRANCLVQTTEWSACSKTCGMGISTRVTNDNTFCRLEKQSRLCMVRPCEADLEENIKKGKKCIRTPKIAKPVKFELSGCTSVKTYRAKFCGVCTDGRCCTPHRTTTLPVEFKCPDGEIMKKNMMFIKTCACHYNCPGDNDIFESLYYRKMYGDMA

integrin β1 subunit (β1 integrins) on 1064SK fibroblasts (human), sequence (P05556 21-798): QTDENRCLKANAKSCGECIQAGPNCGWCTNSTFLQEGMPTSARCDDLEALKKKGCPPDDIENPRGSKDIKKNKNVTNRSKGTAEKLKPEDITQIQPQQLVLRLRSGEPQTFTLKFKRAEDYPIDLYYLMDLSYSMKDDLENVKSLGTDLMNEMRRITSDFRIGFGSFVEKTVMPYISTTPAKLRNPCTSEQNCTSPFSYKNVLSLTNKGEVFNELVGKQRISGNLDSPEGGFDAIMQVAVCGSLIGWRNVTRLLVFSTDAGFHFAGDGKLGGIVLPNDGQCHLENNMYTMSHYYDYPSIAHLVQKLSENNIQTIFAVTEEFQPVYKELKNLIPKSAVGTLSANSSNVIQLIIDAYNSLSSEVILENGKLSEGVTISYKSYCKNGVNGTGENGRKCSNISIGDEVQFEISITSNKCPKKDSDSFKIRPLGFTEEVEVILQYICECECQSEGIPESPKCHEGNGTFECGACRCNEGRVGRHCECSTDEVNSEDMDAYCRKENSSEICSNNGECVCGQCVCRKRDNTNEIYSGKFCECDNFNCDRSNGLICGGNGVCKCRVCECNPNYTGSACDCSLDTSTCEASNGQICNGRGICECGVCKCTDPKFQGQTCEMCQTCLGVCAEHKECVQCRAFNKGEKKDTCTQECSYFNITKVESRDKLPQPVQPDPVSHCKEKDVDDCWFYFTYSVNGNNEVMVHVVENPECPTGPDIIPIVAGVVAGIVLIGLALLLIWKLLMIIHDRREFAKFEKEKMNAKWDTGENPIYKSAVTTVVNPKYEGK
integrin α6β1 on human cells (1064SK fibroblasts, endothelial cells) (human), sequence (P23229 24-1130, chain 1 of 2): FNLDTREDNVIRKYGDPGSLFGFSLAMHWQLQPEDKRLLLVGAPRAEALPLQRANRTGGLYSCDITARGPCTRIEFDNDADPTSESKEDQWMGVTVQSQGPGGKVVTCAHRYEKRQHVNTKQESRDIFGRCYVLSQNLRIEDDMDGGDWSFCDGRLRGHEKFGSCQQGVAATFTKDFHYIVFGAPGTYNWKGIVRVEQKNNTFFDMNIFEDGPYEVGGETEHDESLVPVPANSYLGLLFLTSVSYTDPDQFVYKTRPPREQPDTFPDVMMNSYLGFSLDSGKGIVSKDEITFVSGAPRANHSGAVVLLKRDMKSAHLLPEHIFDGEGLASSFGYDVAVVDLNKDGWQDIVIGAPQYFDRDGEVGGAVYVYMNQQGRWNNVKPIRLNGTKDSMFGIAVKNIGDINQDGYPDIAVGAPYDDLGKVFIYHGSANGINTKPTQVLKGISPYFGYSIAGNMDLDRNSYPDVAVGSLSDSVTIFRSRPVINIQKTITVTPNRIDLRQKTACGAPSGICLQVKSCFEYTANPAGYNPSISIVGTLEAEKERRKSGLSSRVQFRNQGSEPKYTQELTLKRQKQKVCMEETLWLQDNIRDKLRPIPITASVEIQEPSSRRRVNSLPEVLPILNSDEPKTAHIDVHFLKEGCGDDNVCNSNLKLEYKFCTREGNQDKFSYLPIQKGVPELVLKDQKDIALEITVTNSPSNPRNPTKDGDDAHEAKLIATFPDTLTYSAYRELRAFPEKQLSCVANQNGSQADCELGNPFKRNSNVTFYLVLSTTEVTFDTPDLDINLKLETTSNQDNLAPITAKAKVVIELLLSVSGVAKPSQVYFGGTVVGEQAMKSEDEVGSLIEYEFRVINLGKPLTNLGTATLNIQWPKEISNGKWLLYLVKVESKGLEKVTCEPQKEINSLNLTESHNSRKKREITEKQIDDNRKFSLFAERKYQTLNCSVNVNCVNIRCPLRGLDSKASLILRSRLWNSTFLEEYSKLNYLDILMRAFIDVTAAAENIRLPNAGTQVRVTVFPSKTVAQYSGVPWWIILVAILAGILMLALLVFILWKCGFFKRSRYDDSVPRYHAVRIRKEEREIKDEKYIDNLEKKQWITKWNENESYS
integrin α6β1 on human cells (1064SK fibroblasts, endothelial cells) (human), sequence (P05556 21-798, chain 2 of 2, further chain): as the sequence (P05556 21-798) above
αvβ3 integrin on human cells (HUVE cells, fibroblasts, platelets) (human), sequence (P06756 31-1048, chain 1 of 2): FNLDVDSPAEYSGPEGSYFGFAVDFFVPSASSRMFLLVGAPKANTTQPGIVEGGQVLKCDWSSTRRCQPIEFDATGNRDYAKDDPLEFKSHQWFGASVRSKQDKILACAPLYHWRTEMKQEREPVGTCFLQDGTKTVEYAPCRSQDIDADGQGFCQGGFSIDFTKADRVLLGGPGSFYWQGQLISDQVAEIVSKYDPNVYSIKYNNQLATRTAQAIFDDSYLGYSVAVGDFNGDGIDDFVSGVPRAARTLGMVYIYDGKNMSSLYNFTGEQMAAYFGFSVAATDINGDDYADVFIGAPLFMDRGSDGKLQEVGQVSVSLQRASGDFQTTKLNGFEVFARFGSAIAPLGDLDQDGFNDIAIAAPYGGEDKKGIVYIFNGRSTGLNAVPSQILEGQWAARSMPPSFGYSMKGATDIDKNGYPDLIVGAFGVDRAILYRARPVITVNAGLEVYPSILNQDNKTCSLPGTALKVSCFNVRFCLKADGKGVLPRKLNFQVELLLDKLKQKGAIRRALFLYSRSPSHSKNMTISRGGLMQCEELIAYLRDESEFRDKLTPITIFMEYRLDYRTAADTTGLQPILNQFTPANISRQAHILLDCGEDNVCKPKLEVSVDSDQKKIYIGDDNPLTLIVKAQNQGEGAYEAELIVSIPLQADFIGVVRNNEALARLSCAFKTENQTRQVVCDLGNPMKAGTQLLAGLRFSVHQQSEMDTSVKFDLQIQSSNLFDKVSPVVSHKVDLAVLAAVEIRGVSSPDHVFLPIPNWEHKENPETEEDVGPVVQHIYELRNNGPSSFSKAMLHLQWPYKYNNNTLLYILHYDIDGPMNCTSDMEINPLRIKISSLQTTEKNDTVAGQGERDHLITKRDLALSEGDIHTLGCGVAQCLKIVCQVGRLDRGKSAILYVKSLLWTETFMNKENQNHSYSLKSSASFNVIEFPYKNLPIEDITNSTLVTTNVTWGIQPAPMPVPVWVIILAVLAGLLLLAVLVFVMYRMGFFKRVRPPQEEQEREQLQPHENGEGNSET
αvβ3 integrin on human cells (HUVE cells, fibroblasts, platelets) (human), sequence (P05106 27-788, chain 2 of 2, further chain): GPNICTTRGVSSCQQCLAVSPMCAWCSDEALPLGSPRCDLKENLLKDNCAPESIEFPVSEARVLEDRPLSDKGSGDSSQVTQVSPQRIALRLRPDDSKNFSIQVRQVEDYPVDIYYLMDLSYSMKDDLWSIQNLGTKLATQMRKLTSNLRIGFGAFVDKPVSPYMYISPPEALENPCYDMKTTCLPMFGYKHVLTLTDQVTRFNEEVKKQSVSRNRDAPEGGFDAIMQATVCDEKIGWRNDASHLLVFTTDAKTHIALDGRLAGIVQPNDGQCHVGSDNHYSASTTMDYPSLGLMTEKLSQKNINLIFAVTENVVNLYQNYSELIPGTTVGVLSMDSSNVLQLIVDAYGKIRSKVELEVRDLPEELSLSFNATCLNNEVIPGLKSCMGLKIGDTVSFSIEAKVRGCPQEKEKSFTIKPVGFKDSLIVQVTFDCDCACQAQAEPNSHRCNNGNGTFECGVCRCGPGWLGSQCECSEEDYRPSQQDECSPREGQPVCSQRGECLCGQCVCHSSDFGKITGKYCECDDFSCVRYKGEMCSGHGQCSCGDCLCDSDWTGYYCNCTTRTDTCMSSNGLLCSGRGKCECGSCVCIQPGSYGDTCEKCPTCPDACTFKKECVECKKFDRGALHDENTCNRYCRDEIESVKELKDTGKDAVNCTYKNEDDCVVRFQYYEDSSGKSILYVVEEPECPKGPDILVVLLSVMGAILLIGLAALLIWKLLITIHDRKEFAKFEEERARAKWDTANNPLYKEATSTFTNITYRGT

A620, 1064SK adhesion to laminin (5 µg/ml) after anti-α6 antibody; 0.62 without antibody [1]: 0.48 A620
percent inhibition of 1064SK adhesion to laminin by anti-α6 antibody [1]: 22%
Substance: mouse laminin (ligand)

A620, 1064SK adhesion to type I collagen (2 µg/ml) after anti-β1 antibody JB1A; 0.56 without antibody [2]: 0.21 A620
percent inhibition of 1064SK adhesion to type I collagen by anti-β1 antibody JB1A [2]: 62%
Substance: rat tail Type-I collagen (from UniProt P02454 152-1207; P02466 86-1125) (ligand)

relative binding capacity of HUVE cells on wild-type Cyr61 (5 µg/ml) after anti-αvβ3 antibody LM609 (40 µg/ml); no pre-incubation = 100 [3]: 42%
A620, 1064SK adhesion to Cyr61 (2 µg/ml) after anti-α6 antibody (20 µg/ml); 0.53 without antibody [1]: 0.08 A620
percent inhibition of 1064SK adhesion to Cyr61 by anti-α6 antibody [1]: > 80%
percent inhibition of 1064SK adhesion to wild-type Cyr61 by anti-α6 antibody (20 µg/ml) [1]: 78%
A620, 1064SK adhesion to Cyr61 (2 µg/ml) after anti-αv antibody (40 µg/ml); no addition 0.75 [4]: 0.73 A620
A620, 1064SK adhesion to Cyr61 (2 µg/ml) after anti-α4 antibody (40 µg/ml); control without antibody 0.58 [5]: 0.56 A620
A620, 1064SK adhesion to Cyr61 (2 µg/ml) after anti-α5 antibody (40 µg/ml); no addition 0.75 [6]: 0.77 A620
A620, 1064SK adhesion to Cyr61 (2 µg/ml) after anti-β1 antibody JB1A (50 µg/ml); 0.53 without antibody [2]: 0.14 A620
percent inhibition of 1064SK adhesion to Cyr61 by anti-β1 antibody JB1A [2]: 75%
A620, 1064SK adhesion to Cyr61 (2 µg/ml) after anti-α2 antibody (40 µg/ml); control without antibody 0.58 [7]: 0.6 A620
A620, 1064SK adhesion to Cyr61 (2 µg/ml) after anti-α1 antibody (40 µg/ml); control without antibody 0.58 [8]: 0.54 A620
A620, 1064SK adhesion to Cyr61 (2 µg/ml) after anti-α3 antibody (40 µg/ml); control without antibody 0.58 [9]: 0.55 A620
Substance: human Cyr61 (from UniProt O00622 25-381) (ligand)

half-saturation concentration (Fisp12/mCTGF (mouse)): 15 nM
Substance: activated αIIbβ3 (RGD-affinity purified from human platelet lysates) (from UniProt P08514 32-1039; P05106 27-788) (receptor)

Reference: patent EP1254174B1
